# Test results reported in the supplement of paper PMC10567573.
# B1: KIAA0774 (parent)
# chain: FEDEVKRLGWQQQAELQELEERLQ
# Variants of: B1
# Assay: protein stability index of a GFP-peptide fusion (GPS, HEK-293T) (PSI 1-6); higher = more stable
# Conditions: c terminus: a fixed tail appended
# 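Note: lentivirally expressed fusions sorted by FACS into six bins by GFP to DsRed ratio, PSI derived from sequencing read proportions per bin multiplied by bin number.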
row,Variant,protein stability index
1,FEDEVKRLGWQQQAELVELEERLQ [Q17V],4.51
2,FEDEVKRLGWQQQAELPELEERLQ [Q17P],4.91
3,FEDEVKRLGWQQQAELYELEERLQ [Q17Y],3.26
4,FEDEVKRLGWQQQAELQELSERLQ [E20S],4.49
5,FEDEVKRLGWQQQAELQELFERLQ [E20F],2.51
6,FEDEVKRLGWQQQAELQELCERLQ [E20C],4.34
7,FEDEVKRLGWQQQAELQELTERLQ [E20T],3.53
8,FEDEVKRLGWQQQAELQELNERLQ [E20N],4.32
9,FEDEVKRLGWQQQAELQELHERLQ [E20H],4.29
10,FEDEVKRLGWQQQAELQELIERLQ [E20I],3.74
11,FEDEVKRLGWQQQAELQELPERLQ [E20P],4.8
12,FEDEVKRLGWQQQAELQELRERLQ [E20R],3.87
13,FEDEVKRLGWQQQAELQELDERLQ [E20D],4.84
14,FEDEVKRLGWQQQAELQELYERLQ [E20Y],3.71
15,FEDEVKRLGWQQQAELQELWERLQ [E20W],3.05
16,FEDEVKRLGWQQQAELQELAERLQ [E20A],4.08
17,FEDEVKRLGWQQQAELQELVERLQ [E20V],3.49
18,FEDEVKRLGWQQQAELQELKERLQ [E20K],4.4
19,FEDEVKRLGWQQQAELQELGERLQ [E20G],3.05
20,FEDEVKRLGWQQQAELQELMERLQ [E20M],3.81
21,FEDEVKRLGWQQQAELQELQERLQ [E20Q],3.9
22,FEDEVKRLGWQQQAELQELLERLQ [E20L],3.38
23,FEDEVKRLGWQLQAELQELEERLQ [Q12L],2.85
24,FEDEVKRLGWQYQAELQELEERLQ [Q12Y],2.31

row,Variant,protein stability index
1,FEDEVKRLGWQCQAELQELEERLQ [Q12C],2.14
2,FEDEVKRLGWQWQAELQELEERLQ [Q12W],2.9
3,FEDEVKRLGWQFQAELQELEERLQ [Q12F],2.78
4,FEDEVKRLGWQGQAELQELEERLQ [Q12G],4.14
5,FEDEVKRLGWQHQAELQELEERLQ [Q12H],3.1
6,FEDEVKRLGWQPQAELQELEERLQ [Q12P],5.22
7,FEDEVKRLGWQDQAELQELEERLQ [Q12D],4.85
8,FEDEVKRLGWQNQAELQELEERLQ [Q12N],4.8
9,FEDEVKRLGWQSQAELQELEERLQ [Q12S],5.12
10,FEDEVKRLGWQEQAELQELEERLQ [Q12E],4.09
11,FEDEVKRLGWQIQAELQELEERLQ [Q12I],2.45
12,FEDEVKRLGWQAQAELQELEERLQ [Q12A],3.83
13,FEDEVKRLGWQTQAELQELEERLQ [Q12T],3.45
14,FEDEVKRLGWQVQAELQELEERLQ [Q12V],2.83
15,FEDEVKRLGWQMQAELQELEERLQ [Q12M],3.13
16,FEDEVKRLGWQKQAELQELEERLQ [Q12K],4.03
17,FEDEVKRLGWQRQAELQELEERLQ [Q12R],3
18,FEDEVKRLGWQQGAELQELEERLQ [Q13G],5.35
19,FEDEVKRLGWQQFAELQELEERLQ [Q13F],4.42
20,FEDEVKRLGWQQRAELQELEERLQ [Q13R],2.99
21,FEDEVKRLGWQQDAELQELEERLQ [Q13D],4.76
22,FEDEVKRLGWQQLAELQELEERLQ [Q13L],3.5
23,FEDEVKRLGWQQTAELQELEERLQ [Q13T],3.74
24,FEDEVKRLGWQQMAELQELEERLQ [Q13M],2.6

row,Variant,protein stability index
1,FEDEVKRLGWQQPAELQELEERLQ [Q13P],5.11
2,FEDEVKRLGWQQSAELQELEERLQ [Q13S],5.01
3,FEDEVKRLGWQQNAELQELEERLQ [Q13N],5.2
4,FEDEVKRLGWQQCAELQELEERLQ [Q13C],4.83
5,FEDEVKRLGWQQAAELQELEERLQ [Q13A],4.31
6,FEDEVKRLGWQQEAELQELEERLQ [Q13E],5.03
7,FEDEVKRLGWQQWAELQELEERLQ [Q13W],3.67
8,FEDEVKRLGWQQIAELQELEERLQ [Q13I],3.44
9,FEDEVKRLGWQQHAELQELEERLQ [Q13H],4.39
10,FEDEVKRLGWQQKAELQELEERLQ [Q13K],3.77
11,FEDEVKRLGWQQYAELQELEERLQ [Q13Y],3.58
12,FEDEVKRLGWQQVAELQELEERLQ [Q13V],3.86
13,FEDEVKRLGWQQQANLQELEERLQ [E15N],4.51
14,FEDEVKRLGWQQQAILQELEERLQ [E15I],2.64
15,FEDEVKRLGWQQQAKLQELEERLQ [E15K],3.2
16,FEDEVKRLGWQQQAHLQELEERLQ [E15H],3.53
17,FEDEVKRLGWQQQAFLQELEERLQ [E15F],2.42
18,FEDEVKRLGWQQQACLQELEERLQ [E15C],3.39
19,FEDEVKRLGWQQQATLQELEERLQ [E15T],3.87
20,FEDEVKRLGWQQQALLQELEERLQ [E15L],3.13
21,FEDEVKRLGWQQQAALQELEERLQ [E15A],2.74
22,FEDEVKRLGWQQQAVLQELEERLQ [E15V],3.65
23,FEDEVKRLGWQQQADLQELEERLQ [E15D],4.46
24,FEDEVKRLGWQQQARLQELEERLQ [E15R],2.92

row,Variant,protein stability index
1,FEDEVKRLGWQQQAGLQELEERLQ [E15G],3.85
2,FEDEVKRLGWQQQAMLQELEERLQ [E15M],3.32
3,FEDEVKRLGWQQQAYLQELEERLQ [E15Y],2.65
4,FEDEVKRLGWQQQAPLQELEERLQ [E15P],3.71
5,FEDEVKRLGWQQQASLQELEERLQ [E15S],4.05
6,FEDEVKRLGWQQQAWLQELEERLQ [E15W],2.85
7,FEDEVKRLGWYQQAELQELEERLQ [Q11Y],4.76
8,FEDEVKRLGWPQQAELQELEERLQ [Q11P],4.57
9,FEDEVKRLGWMQQAELQELEERLQ [Q11M],3.79
10,FEDEVKRLGWNQQAELQELEERLQ [Q11N],4.52
11,FEDEVKRLGWTQQAELQELEERLQ [Q11T],3.3
12,FEDEVKRLGWWQQAELQELEERLQ [Q11W],4.16
13,FEDEVKRLGWRQQAELQELEERLQ [Q11R],4.44
14,FEDEVKRLGWFQQAELQELEERLQ [Q11F],3.73
15,FEDEVKRLGWKQQAELQELEERLQ [Q11K],4.41
16,FEDEVKRLGWLQQAELQELEERLQ [Q11L],4.46
17,FEDEVKRLGWSQQAELQELEERLQ [Q11S],4.4
18,FEDEVKRLGWVQQAELQELEERLQ [Q11V],1.72
19,FEDEVKRLGWGQQAELQELEERLQ [Q11G],4.84
20,FEDEVKRLGWEQQAELQELEERLQ [Q11E],4.83
21,FEDEVKRLGWHQQAELQELEERLQ [Q11H],5.08
22,FEDEVKRLGWIQQAELQELEERLQ [Q11I],3.88
